Tests used:
[1] = human predicted dosimetry extrapolated from rat organ distribution (OLINDA/EXM 1.1)
Procedure: The predicted dosimetry in humans was calculated using [^68Ga]Ga-C803-GIP organ distribution data obtained in healthy male Sprague Dawley rats. The rat decay-uncorrected SUVs (SUVA) in various organs were normalized to the whole-body adult reference phantom weights (Equation (2)) in order to assess the residence times (MBq-h/MBq) of the tracer in those organs. The data from the measured time points (5, 10, 20, 40, 60, 90, 120, and 180 min) were used for trapezoidal approximation followed by the extrapolation from the last point to infinity by a single exponential fit. The bone marrow blood volume model was used for the determination of the residence time in bone marrow. The absorbed doses were calculated using OLINDA/EXM version 1.1 with reference to adult male and female phantoms (International Commission on Radiological Protection 60). (2) [%/organ]human=SUVA×(gorgan/kgweight)human

[2] = post-production stability of the 68Ga-labeled product at room temperature (UV-Radio-HPLC); type: physicochemical; details: ambient temperature, for at least 2 h, with addition of ascorbic acid
Source text: The ^68Ga-labeling procedure was optimized in terms of the radiochemical yield and required optimization of such factors as temperature, heating time, radical scavenger content, buffer concentration, pH, and product purification mean. The labeling was reproducible with a high non-decay corrected radiochemical yield of 61.1 ± 2.9% and a molar activity of 59.8 ± 4.4 MBq/nmol at the end of the synthesis (Figure 2). The radioactivity at the end of the synthesis was 424 ± 29 MBq with a radiochemical purity of 94.5 ± 0.3% (for the chromatogram, see Supplementary Materials, Figure S1). […]
The ^68Ge/^68Ga generator (pharmaceutical grade, GalliaPharm®, Eckert & Ziegler, Berlin, Germany) eluate was fractionated, and the top fraction of 3.5 mL containing approximately 90% of the radioactivity was collected for the radiolabeling. […] The radiochemical purity and the peptide concentration in the product were determined by high-pressure liquid chromatography (HPLC). […] The stability of the product at room temperature was monitored for 2 h and assessed by UV-Radio-HPLC. […] The total radioactivity of the product was then measured in an ionization chamber. The radioactivity recovery from the analytical column was controlled by performing an analysis of the product, generator eluate, and the product spiked with the generator eluate with and without column. […]

## CC[C@H](C)[C@H](NC(=O)[C@H](CO)NC(=O)[C@H](Cc1ccc(O)cc1)NC(=O)[C@H](CC(=O)O)NC(=O)[C@H](CO)NC(=O)[C@@H](NC(=O)[C@H](Cc1ccccc1)NC(=O)[C@@H](NC(=O)CNC(=O)[C@H](CCC(=O)O)NC(=O)[C@@H](C)NC(=O)[C@@H](N)Cc1ccc(O)cc1)[C@@H](C)O)[C@@H](C)CC)C(=O)N[C@@H](C)C(=O)N[C@@H](CC(C)C)C(=O)N[C@@H](CC(=O)O)C(=O)N[C@@H](CCCCN)C(=O)N[C@H](C(=O)N[C@@H](Cc1c[nH]cn1)C(=O)N[C@@H](CCC(N)=O)C(=O)N[C@@H](CCC(N)=O)C(=O)N[C@@H](CCC(=O)O)C(=O)N[C@@H](Cc1ccccc1)C(=O)N[C@H](C(=O)N[C@@H](CCC(=O)O)C(=O)N[C@@H](Cc1c[nH]c2ccccc12)C(=O)N[C@@H](CC(C)C)C(=O)N[C@@H](CCCCN)C(=O)N[C@@H](C)C(=O)NCC(=O)NCC(=O)N[C@@H](Cc1c[nH]cn1)C(=O)N1CCC[C@H]1C(=O)N[C@@H](CO)C(=O)NCC(=O)N[C@@H](C)C(=O)N1CCC[C@H]1C(=O)N1CCC[C@H]1C(=O)N1CCC[C@H]1C(=O)N[C@@H](CO)C(=O)N[C@@H](CSCCS(=O)(=O)CCN1CCN(CC(=O)O)CCN(CC(=O)O)CCN(CC(=O)O)CC1)C(N)=O)[C@@H](C)CC)[C@@H](C)CC [[^68Ga]Ga-C803-GIP, metal not drawn]
[1]; human
  predicted absorbed radiation dose, kidneys, females: 0.773 mGy/MBq
  predicted absorbed radiation dose, kidneys, males: 0.713 mGy/MBq
[1]; human female phantom
  Equivalent dose, Adrenals, Female: 0.0124 mSv/MBq
  Equivalent dose, Brain, Female: 0.000658 mSv/MBq
  Equivalent dose, Breasts, Female: 0.00113 mSv/MBq
  Equivalent dose, Gallbladder Wall, Female: 0.00555 mSv/MBq
  Equivalent dose, Heart Wall, Female: 0.0362 mSv/MBq
  Equivalent dose, Kidneys, Female: 0.773 mSv/MBq
  Equivalent dose, LLI Wall, Female: 0.00196 mSv/MBq
  Equivalent dose, Liver, Female: 0.00754 mSv/MBq
  Equivalent dose, Lungs, Female: 0.0073 mSv/MBq
  Equivalent dose, Muscle, Female: 0.00306 mSv/MBq
  Equivalent dose, Osteogenic Cells, Female: 0.0145 mSv/MBq
  Equivalent dose, Pancreas, Female: 0.0089 mSv/MBq
  Equivalent dose, Red Marrow, Female: 0.0135 mSv/MBq
  Equivalent dose, Skin, Female: 0.001 mSv/MBq
  Equivalent dose, Small Intestine, Female: 0.00398 mSv/MBq
  Equivalent dose, Spleen, Female: 0.0124 mSv/MBq
  Equivalent dose, Stomach Wall, Female: 0.00374 mSv/MBq
  Equivalent dose, Testes/Ovaries, Female: 0.00189 mSv/MBq
  Equivalent dose, Thymus, Female: 0.00198 mSv/MBq
  Equivalent dose, Thyroid, Female: 0.000543 mSv/MBq
  Equivalent dose, ULI Wall, Female: 0.00371 mSv/MBq
  Equivalent dose, Urinary Bladder Wall, Female: 0.00202 mSv/MBq
[1]; human male phantom
  Equivalent dose, Adrenals, Male: 0.00936 mSv/MBq
  Equivalent dose, Brain, Male: 0.000541 mSv/MBq
  Equivalent dose, Breasts, Male: 0.000934 mSv/MBq
  Equivalent dose, Gallbladder Wall, Male: 0.00515 mSv/MBq
  Equivalent dose, Heart Wall, Male: 0.0319 mSv/MBq
  Equivalent dose, Kidneys, Male: 0.713 mSv/MBq
  Equivalent dose, LLI Wall, Male: 0.00166 mSv/MBq
  Equivalent dose, Liver, Male: 0.006 mSv/MBq
  Equivalent dose, Lungs, Male: 0.00576 mSv/MBq
  Equivalent dose, Muscle, Male: 0.00227 mSv/MBq
  Equivalent dose, Osteogenic Cells, Male: 0.0109 mSv/MBq
  Equivalent dose, Pancreas, Male: 0.00777 mSv/MBq
  Equivalent dose, Red Marrow, Male: 0.014 mSv/MBq
  Equivalent dose, Skin, Male: 0.000859 mSv/MBq
  Equivalent dose, Small Intestine, Male: 0.0031 mSv/MBq
  Equivalent dose, Spleen, Male: 0.0101 mSv/MBq
  Equivalent dose, Stomach Wall, Male: 0.00335 mSv/MBq
  Equivalent dose, Testes/Ovaries, Male: 0.00137 mSv/MBq
  Equivalent dose, Thymus, Male: 0.00178 mSv/MBq
  Equivalent dose, Thyroid, Male: 0.000487 mSv/MBq
  Equivalent dose, ULI Wall, Male: 0.00309 mSv/MBq
  Equivalent dose, Urinary Bladder Wall, Male: 0.00152 mSv/MBq
[1]; whole-body, human female phantom
  Effective dose, Female: 0.0237 mSv/MBq
[1]; whole-body, human male phantom
  Effective dose, Male: 0.0217 mSv/MBq
[2]
  radiochemical purity on post-production storage (stability): over 91%

Source: PMC9864903, “Imaging of the Glucose-Dependent Insulinotropic Polypeptide Receptor Using a Novel Radiolabeled Peptide Rationally Designed Based on Endogenous GIP and Synthetic Exendin-4 Sequences” (Pharmaceuticals, 2022)
